The record followed here is patent publication US20240076386A1 (Pfizer, published 2024).

The target in assay [1] is T1, human E-selectin, cell-surface expressed (human, UniProt P16581 22-610).
T1 sequence: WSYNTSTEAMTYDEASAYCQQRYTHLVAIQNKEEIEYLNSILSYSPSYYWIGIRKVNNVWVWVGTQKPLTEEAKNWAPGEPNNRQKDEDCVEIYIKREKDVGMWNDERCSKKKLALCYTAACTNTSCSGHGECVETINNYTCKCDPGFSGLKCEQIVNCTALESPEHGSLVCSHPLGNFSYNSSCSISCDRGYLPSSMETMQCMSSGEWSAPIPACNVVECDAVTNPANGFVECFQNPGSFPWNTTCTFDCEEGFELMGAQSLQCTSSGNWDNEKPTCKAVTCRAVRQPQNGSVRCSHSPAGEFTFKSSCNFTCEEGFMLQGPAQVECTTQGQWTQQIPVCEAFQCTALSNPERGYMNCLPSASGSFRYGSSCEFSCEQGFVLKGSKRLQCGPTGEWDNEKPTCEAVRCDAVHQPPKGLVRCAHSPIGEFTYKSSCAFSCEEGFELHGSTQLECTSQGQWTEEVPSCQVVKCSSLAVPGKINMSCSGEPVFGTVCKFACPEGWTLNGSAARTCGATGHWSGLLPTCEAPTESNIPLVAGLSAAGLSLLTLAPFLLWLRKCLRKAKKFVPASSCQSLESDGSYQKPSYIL
Briefly: cell-based or functional assay.

For assay [2], the target named is T2, soluble recombinant human L-selectin (human, UniProt P14151 39-332, limits assumed).
T2 sequence (looked up): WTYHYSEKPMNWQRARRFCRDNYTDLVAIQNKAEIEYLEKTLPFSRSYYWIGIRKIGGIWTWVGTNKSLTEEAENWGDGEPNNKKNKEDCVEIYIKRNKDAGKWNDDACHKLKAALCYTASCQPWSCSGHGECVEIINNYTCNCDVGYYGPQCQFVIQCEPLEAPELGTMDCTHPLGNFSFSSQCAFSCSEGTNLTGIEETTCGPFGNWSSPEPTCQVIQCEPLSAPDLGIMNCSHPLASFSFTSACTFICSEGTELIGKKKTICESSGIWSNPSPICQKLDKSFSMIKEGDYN
Briefly: direct binding ELISA on immobilized human L-selectin, absorbance at 450 nm. Here is the method:
Recombinant histidine tagged human P-, E- or L-selectin (Sino Biologicals), mouse E-selectin (Sino Biologicals), rat E-selectin (Sino Biologicals) and Cynomolgus monkey E-selectin (Sino Biologicals) stock solutions were prepared to a final concentration of 1 μg/mL in phosphate buffered saline without calcium and magnesium. Controls included an L-selectin directed antibody (BioLegend; 304811) or P-selectin directed antibody or a negative control IgG. One hundred μL per well of the diluted recombinant selectin proteins were added into a Ni-NTA HisSorb 96 well plate (Qiagen; 35061). Plates were incubated on an orbital shaker at room temperature for 2 hours. Following the incubation, the plates were washed 3 times with 200 μL of wash buffer (50 mM TRIS [trisaminomethane]; 150 mM sodium chloride; 0.05% polysorbate 20, pH 7.4). To decrease nonspecific binding, plates were treated with 200 μL of blocking buffer (BD Opteia buffer; 555213; BD Biosciences), incubated on an orbital shaker for 1 hour at room temperature and washed as described above. […] One hundred μL specific detection antibodies (described below) were added and incubated for 1 hour: [0556] […] Anti L-selectin and anti-rat-E-selectin antibodies were detected using 1 to 25000 dilution of Peroxidase-conjugated AffiniPure Goat Anti-Mouse IgG (H+L); (Jackson ImnnunoResearch Lab).
Plates were washed and 100 μL per well of 1-Step Ultra TMB substrate (Thermo Scientific) was added and incubated for 5 minutes at room temperature. Reactions were stopped with 100 μL of 2 M sulfuric acid and absorbance read at 450 nm (Spectramax M5e).
(In general: An ELISA detects its analyte on a solid surface through an enzyme-linked reagent.)

Assay [3] deals with T3, human E-selectin coated on the plate of the competition binding ELISA (human, UniProt P16581 22-556, limits assumed).
T3 sequence (looked up): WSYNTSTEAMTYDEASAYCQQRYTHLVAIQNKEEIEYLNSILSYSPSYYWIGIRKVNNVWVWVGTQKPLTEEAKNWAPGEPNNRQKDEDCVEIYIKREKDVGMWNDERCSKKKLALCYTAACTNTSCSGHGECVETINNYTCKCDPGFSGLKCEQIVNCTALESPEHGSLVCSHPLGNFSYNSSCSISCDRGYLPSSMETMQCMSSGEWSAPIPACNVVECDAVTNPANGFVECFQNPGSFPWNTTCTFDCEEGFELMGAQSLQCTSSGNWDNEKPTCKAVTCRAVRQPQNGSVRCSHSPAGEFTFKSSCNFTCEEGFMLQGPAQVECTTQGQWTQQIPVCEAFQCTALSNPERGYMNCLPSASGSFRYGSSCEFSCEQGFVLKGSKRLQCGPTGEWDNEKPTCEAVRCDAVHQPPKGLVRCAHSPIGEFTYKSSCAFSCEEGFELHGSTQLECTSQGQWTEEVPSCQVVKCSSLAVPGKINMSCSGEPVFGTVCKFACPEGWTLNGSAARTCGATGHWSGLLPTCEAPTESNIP
The assay can be described thus: competition ELISA (Biotin-164 competitive ELISA) on plate-coated human E-selectin; competitor: biotinylated antibody 0164, OD450; forced degradation samples T0, T2, T4 weeks at 40 C in Tris, His or Glu buffer. Here is the method:
To additionally asses stability of the forced degradation samples, the activity of the stressed samples was evaluated in a competition binding ELISA. […] The human E-selectin was stored in PBS with Ca/Mg at 500 μg/mL and was diluted with PBS with Ca/Mg to a concentration of 1 μg/mL. This was added to a 384 well MaxiSorp plate, sealed and incubated at 4° C. with gentle shaking overnight. The next day the reagents in each well were removed, followed by addition of 50 μL of blocking buffer (1% BSA in PBS with Ca/Mg) to each well. The wells were sealed and incubated at room temperature for about 1 hour with gentle shaking.
Next, the wash plate was blocked with 1% BSA with PBST (0.05% Tween) on a […] for 3 cycles using 80 μL for each wash. The plate was tapped on a paper towel to drain. […] The wash step was repeated with 3 cycles of 2 washes. Then, dilute Streptavidin-HRP (˜1/7500 diluted in blocking buffer) was added to each well and the plate was incubated at room temperature with gentle shaking ˜40 minutes to 1 hour. The wash step was again repeated with 3 cycles of 2 washes, tapped dry and followed by the addition of 25 μL of TMB substrate (one component HRP microwell substrate). This was followed by the addition of 25 μL of 0.18 M sulfuric acid to stop the reaction when the color reached saturation (determined by observing the color development). The OD450 measurement of the plate was then read on the Envision plate reader, and the data was analyzed with GraphPad, Prism7.

B1: anti-E-selectin antibody 0158 chimera (antibody, human IgG1, kappa, V domains shown)
VH: QVQLKESGPGLVQPSETLSLTCTVSGFSISTYNVHWLRQPPGKGLEWMGMMWSGGSPDYNSALKSRLSISRDTSKNQVFLKMNSLQSEDTTTYYCARWGGGFDYWGQGVMVTVSS
VL: DIVLTQSPTTLSVTPGETVSLSCRASHSIGTNLHWYQQKTNESPRLLIKFTSQSISGIPSRFSASGSGTDFTLNINNVEFDDVSSYFCQQTQSWPLTFGSGTKLEIKR
notes: rat VH/VL on effector-null human IgG1 and human kappa
In the case of B1, the “static neutralization, HL-60 Cell adhesion CHO-Human E-selectin cells IC50 (nM)” value in assay [1] is above 50 % inhibition at 16.5 nM.

B2: humanized anti-E-selectin antibody 0841 (antibody, human IgG1, kappa, V domains shown)
VH: EVQLVESGGGLVQPGGSLRLSCAASGYNIRSSYMHWVRQAPGKGLEWVARIDPANGNTIYAEKFKIRFTISADNAKNSAYLQMNSLRAEDTAVYYCAMDLYSTSEYWGQGTLVTVSS
VL: DIQMTQSPSSLSASVGDRVTITCKTSQNINRYLNWYQQKPGKAPKLLIYNANSLQTGVPSRFSGSGSGTDFTLTISSLQPEDFATYFCLQDNSWPLTFGQGTKVEIKR
notes: effector-null human IgG1, kappa
In the case of B2, the binding result in assay [2] is on record as “no binding (tested: 10 ug/ml)”.

B3: optimized anti-E-selectin antibody 1282 (antibody, human IgG1, kappa, V domains shown)
VH: EVQLVESGGGLVQPGGSLRLSCAASGYAIRSAYMHWVRQAPGKGLEWVARIDPANGNTIYVDSVEGRFTISADNAKNSAYLQMNSLRAEDTAVYYCAMDLYSTSEYWGQGTLVTVSS
VL: DIQMTQSPSSLSASVGDRVTITCKTSQNIERYLNWYQQKPGKAPKLLIYAASSLQSGVPSRFSGSGSGTDFTLTISSLQPEDFATYFCLQDNAWPLTFGQGTKVEIKR
notes: as for B2
Turning to B3, the binding result in assay [2] is reported as “no binding (tested: 10 ug/ml)”. Besides, the “IC50 (read off the curve)” value in assay [3] is around 10 nM.

B4: optimized anti-E-selectin antibody 1444 (antibody, human IgG1, kappa, V domains shown)
VH: EVQLVESGGGLVQPGGSLRLSCAASGYAIRSAYMHWVRQAPGKGLEWVARIDPANGNTIYVDSVTGRFTISADNAKNSAYLQMNSLRAEDTAVYYCAMDLYSTSEYWGQGTLVTVSS
VL: DIQMTQSPSSLSASVGDRVTITCKTSQNIERYLNWYQQKPGKAPKLLIYAASSLQSGVPSRFSGSGSGTDFTLTISSLQPEDFATYFCLQDNAWPLTFGQGTKVEIKR
notes: as for B2
B4: the binding result in assay [2] is “no binding (tested: 10 ug/ml)”. Also, in assay [3], the “IC50 (read off the curve)” value was around 10 nM.

B5: optimized anti-E-selectin antibody 1448 (antibody, human IgG1, kappa, V domains shown)
VH: EVQLVESGGGLVQPGGSLRLSCAASGYAIRSAYMHWVRQAPGKGLEWVARIDPANGNTIYVDSVKERFTISADNAKNSAYLQMNSLRAEDTAVYYCAMDLYSTSEYWGQGTLVTVSS
VL: DIQMTQSPSSLSASVGDRVTITCKTSQNIERYLNWYQQKPGKAPKLLIYAASSLQSGVPSRFSGSGSGTDFTLTISSLQPEDFATYFCLQDNAWPLTFGQGTKVEIKR
notes: as for B2
With B5, the binding result in assay [2] was “no binding (tested: 10 ug/ml)”. In addition, the “IC50 (read off the curve)” value in assay [3] was around 9 nM.

B6: optimized anti-E-selectin antibody 1284 (antibody, human IgG1, kappa, V domains shown)
VH: EVQLVESGGGLVQPGGSLRLSCAASGYAIRSAYMHWVRQAPGKGLEWVARIDPANGNTIYVESVEGRFTISADNAKNSAYLQMNSLRAEDTAVYYCAMDLYSTSEYWGQGTLVTVSS
VL: DIQMTQSPSSLSASVGDRVTITCKTSQNIERYLNWYQQKPGKAPKLLIYAASSLQSGVPSRFSGSGSGTDFTLTISSLQPEDFATYFCLQDNAWPLTFGQGTKVEIKR
notes: as for B2
On to B6, for which the binding result in assay [2] is recorded as “no binding (tested: 10 ug/ml)”. The “IC50 (read off the curve)” value in assay [3] was around 10 nM.

B7: anti-E-selectin antibody 0159 chimera (antibody, human IgG1, kappa, V domains shown)
VH: EVQLQQSGAELGKPGTSVKLSCKVSGYNIRSTYMHWVSQRPGKGLEWIGRIDPANGNTIYAEKFKRKATLTADTSSNTAYMQLSQLKSDDRAIYFCAMEVRVSFEYWGQGVMVTVSS
VL: DIQMTQSPSFLSASVGDRVTINCKASQNINKYLDWYQQKLGEGPKLLIYYTNNLHTGIPSRFSGSGSGTDFTLTISSLQPEDVATYFCLQHDSGYTFGAGTKLELKR
notes: as for B1
Turning to B7, the “static neutralization, HL-60 Cell adhesion CHO-Human E-selectin cells IC50 (nM)” value in assay [1] is above 50 % inhibition at 49.4 nM.

B8: anti-E-selectin antibody 0170 chimera (antibody, human IgG1, kappa, V domains shown)
VH: EVQLQQSGAELGKPGTSVKLSCKVSGYSIRSTYMHWVNQRPGKGLEWVGRIDPANGNTIYAERFKNKATLTADTSSNTAYMQLSQLKSDDTAIYFCAVEILGIFDYWGQGVMVTVSS
VL: DIQMTQSPSFLSASVGDRVTINCKASQNIDKYLDWYQQKLGEAPKLLMYNTNSLHTGIPSRFSGSGSGTDFTLTISSLQPEDVATYFCLQHNSGYTFGAGTKLELKR
notes: as for B1
Consider B8, for which the “static neutralization, HL-60 Cell adhesion CHO-Human E-selectin cells IC50 (nM)” value in assay [1] was above 50 % inhibition at 444 nM.

B9: anti-E-selectin antibody 0180 chimera (antibody, human IgG1, kappa, V domains shown)
VH: EVQLQQSGAELGKPGTSVKLSCKVSGYKIRSSYMHWVNQRPGKGLEWIGRIDPANGNTIYGDKFKSKATLTSDTSSNTAYIQLSQLKSDDTAIYFCAIDIGTTFDYWGQGVMVTVSS
VL: DIQMTQSPSFLSASVGDRVTINCKASQHINRYLNWYQQKLGEAPKLLIYDANNLQTGIPSRFSGSGSGTDFTLTISSLQPEDVATYFCLQHNSWPNTFGAGTKLELKR
notes: as for B1
With B9, the “static neutralization, HL-60 Cell adhesion CHO-Human E-selectin cells IC50 (nM)” value in assay [1] is above 50 % inhibition at 444 nM.

B10: anti-E-selectin antibody 0164 chimera (antibody, human IgG1, kappa, V domains shown)
VH: EVQLQQSGAEFGKPGTSVKLSCKVSGYNIRSSYMHWVNQRPGKGLEWIGRIDPANGNTIYAEKFKIKAILTADSSSNTAYMQLSQLKSDDTAIYFCAMDLYSTSEYWGQGVMVTVSS
VL: DIQMTQSPSFLSASVGDRVTINCKTSQNINRYLNWYQQKLGEAPKLLIYNANSLQTGIPSRFSASGSGTDFTLTINSLQPEDVATYFCLQDNSWPLTFGSGTKLEIKR
notes: as for B1
For B10, the “static neutralization, HL-60 Cell adhesion CHO-Human E-selectin cells IC50 (nM)” value in assay [1] is above 50 % inhibition at 16.5 nM.
